Laboratory results from the nanobody polyreactivity screen of Harvey et al. (2022).

Assay: yeast display, Sf9 membrane polyspecificity reagent, FACS + sequencing; frameworks hold sequencing errors
Procedure, shortened: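 Using colony PCR, genes from sorted yeast display clones were amplified, then sequenced on MiSeq at 2 × 250 and filtered by CDR length. The clones had been stained with 10% biotinylated, detergent-solubilized Sf9 membrane reagent for 1 hour at 4 °C and sorted by FACS into low and high (top ~1%) gates on anti-HA and streptavidin fluorescence. Polyreactivity labels come from the gate of origin.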

Sequence	polyreactivity (PSR sort gate)
AVQLVESGGGLVQAGGSLRLSCAASGSTCTGMTWDGRHRRLGRKELVAGIRSAGSTNYADSVKGRFTISGDNAKITVYLQLNSLKPEDTAVYYCAKDYRWVWRKYGYWGQGTQVTVSS	low polyreactivity
EDQLEESGGGLVQAGGSLRLSCAASGLIFPSYVMGWYRQAPGKERELVASISRVGSTYADSVKGRFTISRDNAKNTVYLQMNSLKPEDTAVYYCAKQVVWRGFRGLDYWGQGTQVTLSS	high polyreactivity
EEELVESGGGLVQAGGRLRLSCAASGRIFDYNAMGWYRQAPAKQRELVAVIDYSGDSTYYADSVKGRFTISRDNAKNTVYLQLISLKPEDTAVYYCNADSRYSYSDYGYWGQGTQVNVSS	low polyreactivity
EEELVESGGGLVQPGGSLRLSCAASGSIFTHYSMGWYRQAPGKERELVAAISWSGGSTYYADSVKGRFTISRDNAKYTVSLQMNSLKAEDTAVYYCAAETYWGDDYWGQGTQVTVSS	high polyreactivity
EVQLGESGGGLVQAGGSLRLSCAASGSTFNTNAMGWYRQAPGKERELVAAISWSSTRTYYADSVKGRFTISRDNAKNTVYLQINSLKPEDTAVYYCAGRSVGGRYFKGNYWGHGTQVTVSS	high polyreactivity
EVQLVESGGGLVQAGGSLRLICAASGSIFRDNAMGWYRQAPGKERELVARITWSGTRTYYADSVKGRFTISRDKAKNTVYLQMNSLKPEDTAVYYCNKDRRTIPPSGNDYWGQGTQVTVSS	low polyreactivity
EVQLVESGGGLVQAGGSLRLSCAASGRTFLVNAMGWSRPAPGKERELVAAISRSSGRTYYADSVKGRFTISRDNAKNTVYLQMNSLKPEDTAVYYCAARGYWGQGTQVTVSS	high polyreactivity
EVQLVESGGGLVQAGGSLRLSCAASGSIFYTNTMGWYRQAPGKERELVATGSTYYADSVKGRFTISRDNAKNTVYLQMNSLKPEDTAVYYCAKRGDFLTTRYESGSAASDYWGQGTQVTVSS	low polyreactivity
EVQLVESGGGLVQAGGSLRLSCAASGTSFLLYAMGWYRQARGKERELLAAISSSGARTYYADSVKGRCTISRDNAKYTVYLQMNSLKPEDTAVYYCAASRRAYRSSYVSPFGYWGQGTQVTGSS	high polyreactivity
EVQLVESGGGLVQAGGSLRLSCAAYGFTFVVYDMGWYRQAPGKERELVAAISRRGGNTYYADSVKGRFTISRDNAKNTVYLQMNSLKPEDTAVYYCNAVRTRKAYDYWGQGTQVTVSS	low polyreactivity
EVQLVESGGGLVQAGGSLRLSCADSGGIFIFYALGWYRQAPWKEREFVASIRSNVGSTYYADSVKGRFTISRDNAKNTVYLQMNSLNPEDTAVYYCNSRYYWYRGYDYWGQGTQVTVSS	high polyreactivity
EVQLVESGGGLVQSGGSLRLSSAASGSIFRYYAMGWYRQAPGKERELVAAITGSTGRTYYADSVKGRFTISRDNAKNTVYLQMNSLKPEDTAVYYCAARSRYYEYDYWGQGTQVTVSS	low polyreactivity
HAQLQESGGGLVQAGGSLRRSCAASGSIFRFSGMGWYRRAPGKERELVASIGFGSITYYADRVKGRFTISRDNANKTVYLQMNSLKPEDTAVYYCAVQVQDESWLDYWGQGTQVTVSC	low polyreactivity
HDQLVESGGGLVQAGGSLRLSCAASGNTFIYYAMGWYRQAPGKEREMVAAISRSGGSTYYADSVKGRFTISRDNAKNTVYLQMNSLKPEDTAVYYCAAEATKWIGVVTMDYWGQGTQVTVSS	high polyreactivity
HFQLVESGGGLVQAGGSLRLSCAASGFTFNDMGWYRLATGKERELVARIDSDDTTNYADSVKGRFTISRDNAKKTVYVLMNSLKPEDTAVYYCNKDYAWLSYQDYDYWGQGTQVTVSS	low polyreactivity
HFQLVESGGGLVQAGGSLRLSCAASGSSYSNYAMGWYRQAPGKEREMVAAISSSGSTYYADSVKGRFTISRDNAKNTVYLQLHRLKPEDTAVYYCAAGKDRRTSRYRYDSWGQGTQVTVSS	high polyreactivity
HGQLVESGGGLVQAGGSLRLSCAASGRTFRYYAMGWYREAPGKERELVAAITGSGGSTYYADSVKGRFTISRDNAQNTVYLQMNSLKPEDTAVYYCATRWALRWRGGYWGQGTQVTVSS	high polyreactivity
HLQLVESGGGLVQAGGSLRLSCAASGSILNFYAMGWYRQAPGTERELVAAISSSGGSTYYADSVKGRFTISRDNAKNTVYLQMNILQPEDTAVYYCNADYSPSSDSEYGYWGQGTQVTVSS	low polyreactivity
HLQLVESGGVLVQAGGSLRLSCASSGSTFRSNVMGWYRQAPGKAREFVAAITSSSATTYYADSVKGRFTISRDNAKNTVYLLINSLKPEDTAVYYCAAGGRKAGPAGGQYYYWGQGTQVTVSS	low polyreactivity
HLQLVETVGGLDQAGGSLRLSFAASGITSYGYAKGGYSEAAANESELVASISWTGGNTYADSLKGRFTISRDNAKNSVYLQMNSLKPEDSAVYYSNAGRSWDFLYCYEYWGQGTQVTVSS	low polyreactivity
HSAVGLVQAGVRHPLSCAASGRMFKYNAMRWYRQAPGKERELVAAISYSGGSTYYADSVKGRFTISRDNEMYTVYLQMNSLKPEDTAVYYCAKATSTREPKYGYWGQGTHVTVSS	high polyreactivity
HVELVQSCGGLVQAGGSLRLSSAASGRIFSPYVMGWFRQAPGKVRQLVAASRNRGGSTYYAAAVKWRFTISRDNATNTVYIQMNSLKPEDTAVYYCNAPDVSRPLRGRYDYWGQGTQVTVSS	high polyreactivity

Sequence	polyreactivity (PSR sort gate)
HVQHVDSGAGLVQAGGSLRLSCAASGRTFVGYAMGWYRQAPGKEREFVADITYDSGSTYYADSVKGRFTISRDNAKNTVYLQMNSLKPEDTAVYYCNAKYYYWWYDVDYWGQGTQVTVSS	high polyreactivity
HVQHVDSGGGLVQAGGSLRLSFAAYGRIFVNNAMGWYRQATGKERELVAAISQNGGRTYYADSVKGRFTISRDNAKNTVYLQMNSLKPEDTAVYYCAAGQARAGLIGGYWGQGTQVTVSS	high polyreactivity
HVQIVESGGGLVQAGGSLRLSCADSGSTFLGYDMGWFRQAPGKVRELVATISKSGGSTHYADSVKGRFTISRDNAKNTVSLQMNSLKPEETAVYYCAADYYPRYYKNTGEYDYWGQGTQVTVSS	low polyreactivity
HVQLQERGGGLVQAGGSLRPSCAARGTISDGVPMGWYRQAPGEERELVATTVLGATTNYADSVKGRFTISRGNAKNTVYLQMNSLNPEETAVYYCAAPLRYDKGFSYWGQGTQVTVSS	low polyreactivity
HVQLQESGGGLVQAGGDLRLSCAASGNIFRDYIMGWYRQAPGKEREFVAGIDRGANTNYADSVKGRFTISRDNAKNTVYLQMNSLIPEDTAVYYCAVHTAIVPDFIYWGQGTQVTVSS	low polyreactivity
HVQLQESGGGLVQAGGSLRLSCAASGNISYSRNMGWYRQAPGKERELVAAIDRGAITYYADSVQGRFTISRDNAKNTVYLQIYSLKPEDTAVYYCAAEYHDRWDHLYWGQGTQVTVSS	high polyreactivity
HVQLQESGGGLVQAGGSLRLSCAASGSNFRWSPMGWYRLAPGKEREFVAGINRGGITNYADSVKGRFTSSRDNAKNTVYLQMNSLKPEDTALYYCAAIAYPDLPTYFDYDSDYFYRGQGTQVTVSS	low polyreactivity
HVQLQESGGVLVQAGGSLRLSCAASGSIFQATYMGWYRQAPGKEREFVASITYGSITNYADSVKGRFTIGRDNAKDTLYLQMNSLKPEDTAVYYCADDRHYIPAFHYWGQGTQVTVSS	low polyreactivity
HVQLQETGGGLVQAGGCLSCTASGTIFGQGDMGWYRPAPGKERELVATINDGASTYYADSVKGRFTISRDKAKNTVYLQKNSLKPDDTAVNYCAVFTDITTYFGYWGQGTQVTVSS	low polyreactivity
HVQLVDSGGGLVQAGGSLRLSCAASGFIFRRYAMGWYRQAPGKERELVAAIRSDGSTNYADSVKGRFTISRDNAKNTVYLQLNSLKPEDTAVYYCAATYYSYTWFSQYYYWGQGTQVTVSS	high polyreactivity
HVQLVESAGGLVQAGGSLRLSCAASGRIFAVYAMGWYRQAPGKERELVAAISYIGGSTYYADSVKGRFTISRDNAKNTVYLQMNSLKPEDTAVYYCNKDIPKRQYVVYRTAYEYDYWGQGTQVSVSS	low polyreactivity
HVQLVESAGGLVQEGGSLRVSCAASGFTFSFYAMGGYRQAPGKERELVAAISWNSGSTYYADSVKGRFTISRDNAKNTVYLQMNSLKPADTAVYYCAADVQRYRGITYYYWGQGTPVTVSS	high polyreactivity
HVQLVESGGGFVQAGGSLRLSCAASGITFVKYTMGWYRQAPGKERELVAASSRSDGRTYYADSVKGRFTISRDNAKNSVYLQMNSLKPEDTAVYYCNAVYGVIGKGYNYWGQGTQVTVSS	high polyreactivity
HVQLVESGGGIVQAGGSLRLSCAASGLIFSYYAMGWYRQAPGKERELVAAINSGGSTYYADSVKGRFTISRDNAKNTVYLQMNSLKPEDSAVYYCAAHLWYHGHLFDYWGQGTQVTVSS	high polyreactivity
HVQLVESGGGIVQAGGSLRLSCAASGLIVINYAMGRYRQARGKERELVATIRYCGGSTNYADSVKGRFTISRDNAKNTVYLQMNSLKPEDNAVYYCNAGYYPTGYDYWGQGTQVTVSS	low polyreactivity
HVQLVESGGGLVHAGGSLRLSCAASGAIFWVNAMGWYREAPGKERELVADISRSGANTYYADSVKGRFTISRDNAKNTVYLQMTSLNPEDTAVYYCAKGVFYPWWYVQPEHDYWGQGTQVTVSS	high polyreactivity
HVQLVESGGGLVQAGGSLPLSCAASGRTFDHYAMGWYRQAPGKEREFVAAITSGGSTYYADSVKGRFRISRDNAKNTVYLQMNSLKPVDTAVYYCNNDSSFWGYYIAQVNERDYWGQGTQVTVSS	low polyreactivity
HVQLVESGGGLVQAGGSLRLICAASGFIFRFNAMGWYRQAPGKERELVAAISGSGGITYYADSVKGRFTISRDNAKNTVYLQMNSLKPEDTAVYYCAARPLFGWRGYNYWGQGTQVTVSS	high polyreactivity
HVQLVESGGGLVQAGGSLRLRCAASGITFAEYTMGWYRQAPGKERELVAAISRRGGSTYYADSVKGRLTISRDNAKNTVYLQMNSLKPEDTAVYYCNALFRYSRDYWGQGTQVTVSS	high polyreactivity
HVQLVESGGGLVQAGGSLRLSCAACGSTFRRYTMGWYIQAPGKDRELVAAITWSGGSTYYADSVKGRFTISRDNAKNTVYLQMNSLKPEDTAVYYCAADRPYHTREYYYWGQGSQVTVSS	low polyreactivity
HVQLVESGGGLVQAGGSLRLSCAASGFIIADNAMGWDRQAPGKERELVAAISSSGGSTYYADSVKARFTISRDNAKNTVYLQMNSLKPVDTAVYYCAARTYHPRYVRPTFYYWGQGTQVTVSS	low polyreactivity
